Residue numbers refer to the chain shown, from its start.
B1: 585 (protein)
chain: MAQGKVALEEHFAIPETLQDAAGFVPGDYWKELQHRLMDIQDTRLKEMDKHEIGTMVLSLAAPAVQAIPDRRKAIELAKRANDFLAEEVAKRPDRFLAFAALPMQDPEAATEELQRCVADLGFVGAMVNGFSQEGDGQTPLYYDLPQYRPFWGEVEKLDVPFYLHPRNPLPQDARIYDGHPWLLGPTWAFAQETAVHALRLMASGLFDEHPRLNIILGHMGEGLPYMMYRIDHRIAWVKAPPDYPAKRRFMDYFLENFWITTSGNFRTQTLIDAILEIGADRILFSTDWPFENIDHAADWFAATSIAEADRVKIGRTNARNLFKLDVS
modifications: Dicamba decarboxylase variant
B2: 584 (protein)
chain: MAQGKVALEEHFAIPETLNDAAGFVPGDYWKELQHRLLDIQDTRLKEMDKHGIGTMILSLAAPAVQGIVDRRQAIEIAKRANDFLAEEVAKRPDRFLAFAALPLQDPDAATSELQRCVADLGFVGAMVNGFSQEGDGQTPLYYDLPQYRPFWKEVEKLDVPFYLHPRNPLPQDARIYDGHPWLLGPTWAFAQETAVHALRLMASGLFDEHPRLNIILGHMGEGLPYMMYRIDHRIAWVKAPPDYPAKRRFMDYFLENFHITTSGNFRTQTLIDAILEIGADRILFSTDWPFENIDHAADWFAATSIAEADRVKIGRTNARRLFKLDVR
modifications: Dicamba decarboxylase variant
B3: 583 (protein)
chain: MAQGKVALEEHFAIPETLQDAAGFVPGDYWKELQHRLLDIQDTRLKEMDKHEIGTMILSLAAPAVQGIPDRRKAIELAKRANDFLAEEVAKRPDRFLAFAALPLQDPEAATEELQRCVNDLGFVGAMVNGFSQEGDGQTPLYYDLPQYRPFWKEVEKLDVPFYLHPRNPLPQDSRIYDGHPWLLGPTWAFAQETAVHALRLMASGLFDEHPRLNIILGHLGEGLPYMMYRIDHRIAWVKAPPRYPAKRRFMDYFLENFWITTSGNFRTQTLIDAILEIGADRILFSTDWPFENIDHAADWFAATSIAEADRVKIGRTNARRLFKLDVR
modifications: Dicamba decarboxylase variant
B4: 575 (protein)
chain: MAQGLVALEEHFAIPETLQDAAGFVPGDYWKELQHRLLDIQDTRLKEMDKHGIGTMILSLAAPAVQAIPDRRKAIELARRANDFLAEEVAKRPDRFLAFAALPLQDVDAATSELQRCVADLGFVGAMVNGFSQEGDGQTPLYYDLPQYRPFWKEVEKLDVPFYLHPRNPLPQDARIYDGHPWLLGPTWAFAQETAVHALRLMASGLFDEHPRLNIILGHLGEGLPYMMYRIDHRIAWVHATPRYPAKRRFMDYFLENFHITTSGNFRTQTLIDAILEIGADRILFSTDWPFENIDHAADWFNATSIAEADRVKIGRTNARRLFKLDVR
modifications: Dicamba decarboxylase variant
B5: 581 (protein)
chain: B1 chain with K5L, M38L, M104L, P107V, E108D, E112S, G153K, W259H, N321R, V327G
modifications: Dicamba decarboxylase variant
B6: 579 (protein)
chain: MAQGLVALEEHFAIPETLNDAAGFVPGDYWKELQHRLLDIQDTRLKEMDKHEIGTMVLSLAAPAVQAIPDRRQAIELAKRANDFLAEEVAKRPDRFLAFAALPLQDVEAATEELQRCVADLGFVGAMVNGFSQEGDGQTPLYYDLPQYRPFWKEVEKLDVPFYLHPRNPLPQDSRIYDGHPWLLGPTWAFAQETAVHALRLMASGLFDEHPRLNIILGHMGEGLPYMMYRIDHRIAWVKAPPDYPAKRRFMDYFLENFHITTSGNFRTQTLIDAILEIGADRILFSTDWPFENIDHAADWFNATSIAEADRVKIGRTNARRLFKLDGS
modifications: Dicamba decarboxylase variant
B7: 580 (protein)
chain: B6 chain with K79R, V107P, E108D, K153G, S174A, D243R, N302A, S328R
modifications: Dicamba decarboxylase variant
B8: 573 (protein)
chain: MAQGLVALEEHFAIPETLNDAAGFVPGDYWKELQHRLLDIQDTRLKEMDKHGIGTMVLSLAAPAVQAIPDRRKAIEIARRANDFLAEEVAKRPDRFLAFAALPMQDVDAATEELQRCVNDLGFVGAMVNGFSQEGDGQTPLYYDLPQYRPFWKEVEKLDVPFYLHPRNPLPQDSRIYDGHPWLLGPTWAFAQETAVHALRLMASGLFDEHPRLNIILGHLGEGLPYMMYRIDHRIAWVKAPPDYPAKRRFMDYFLENFHITTSGNFRTQTLIDAILEIGADRILFSTDWPFENIDHAADWFAATSIAEADRVKIGRTNARRLFKLDVR
modifications: Dicamba decarboxylase variant
B9: 574 (protein)
chain: B8 chain with N19Q, V57I, M104L, N119A, A302N, V327G, R328S
modifications: Dicamba decarboxylase variant
B10: 582 (protein)
chain: B6 chain with L38M, Q73K, L77I, K79R, V107P, E108D, A119N, K153G, S174A
modifications: Dicamba decarboxylase variant
B11: 577 (protein)
chain: B8 chain with T43E, V57I, R79K, M104L, N119A, L220M, D243R, H259W, R328S
modifications: Dicamba decarboxylase variant
B12: 578 (protein)
chain: B8 chain with N19Q, I40M, T43E, K50R, M104L, K153G, H259W, R321N, V327G
modifications: Dicamba decarboxylase variant
B13: 586 (protein)
chain: B8 chain with N19Q, G52E, I77L, M104L, K239H, A302N
modifications: Dicamba decarboxylase variant
B14: 576 (protein)
chain: B8 chain with N19Q, M104L, N119A, K153G, S174A, K239E, V327G
modifications: Dicamba decarboxylase variant
B15: 98 (protein)
chain: MAIIDCHGHYTTAPAAHDAFRKAQIAHHDDPQQPAPQYPHISDDALRESIEQHQLRLLRERGADMTIFSPRASTMAHHIGNEAVSQVWTQRCNDLIARVVQLYPHTFIGVCQLPQSPGVPISHSIAELERCVNELGFVGCNLNPDPSGGHWNGVPLTDRAWYPFFEKMVELDVPAMVHVSGSCNANFHATGAHYLNADTTAFMQFLEGDLFRDFPSLRFIIPHGGGAVPYHWGRFRGLADMLGKPPLATHVMRNVFFDTCVYHQPGIDLLFEVIDIDNILFGSEMVGAVRGIDPQTGHYFDDTKRYIDALTISDADKRKVFEGNARRVYPRLDAQLRARGL
modifications: Xanthomonas campestris pv.
B16: 101 (protein, listed as Aquifex aeolicus)
chain: MAQKIALCITGASGVIYGIKLLQVLEELDFSVDLVISRNAKVVLKEEHSLTFEEVLKGLKNVRIHEENDFTSPLASGSRLVHYRGVYVVPCSTNTLSCIANGINKNLIHRVGEVALKERVPLVLLVREAPYNEIHLENMLKITRMGGVVVPASPAFYHKPQSIDDMINFVVGKLLDVLRIEHNLYKRWRG
B17: 96 (protein)
chain: MAPLIVDVHTHVYPPAYMQMLRSRKTVPYVHDPSNNRDPRLIILSSDDDASIPLDQRGRPVDSSYWDINVKLSFMRQHGINCSVISLANPWLDFVEPAEAQMWAERINDDLEKTCATVNKAADPGNTLTLDQKETLFAFGALPLSAPSSESVVAEIKRLKTLEHLRGVIMGTSGLGKGLDDARLDPVWEALQETDMLMFLHPHYGLPEEAYGGPETTGRYGHVLPLALGFPLETTIAVTRMLLSGVFDRFPRLKILLAHSGGTLPFLAGRIESCILHERKFISGGGDVQGPQRSVWDVLKTNIYLDAVVYGKPGLEAAMTASGSDRLLFGTDHPFFPPLDSKDNSWPSVTTNYQAIHATFDTNSKTVADVLGGNAARILNLK
modifications: Aspergillus nidulans
B18: 97 (protein, listed as Sphingobium sp.)
chain: MAMMIIDCHGHYTVLPKAHDEWREQQKAAFKAGQPAPPYPEISDDEIRETIEANQLRLIKERGADMTIFSPRASAMAPHVGDQSVAVPWAQACNNLIARVVDLFPETFAGVCMLPQSPEADMTSSIAELERCVNELGFIGCNLNPDPGGGHFKHPPLTDRFWYPFYEKMVELDVPAMIHVSGSCNPAMHATGAYYLAADTIAFMQLLQGNLFADFPTLRFIIPHGGGAVPYHWGRFRGLADMLKQPSLDTLLMNNVFFDTCVYHQPGINLLADVIDNKNILFGSEMVGAVRGIDPTTGHYFDDTKRYIDALDISDQERHAIFEGNTRRVFPRLDAKLKARGL
B19: 99 (protein, listed as Ralstonia solanacearum)
chain: MAIIDCHGHFTTAPTALEDWRKRQIANLATPALGPSPDDLKISDDALTEAIRANQLRLMQARGSDLTIFSPRASFMAHHIGDFHTSATWAAICNALCHRVSQLFPDHFVGAAMLPQSPGVDIRTCIPELARCIVDYGFVGVNLNPDPSGGHWTSPPLSDPYWFPLYEKLVEYDVPAMIHVSTSCNACFHTTGAHYLNADTTAFMQVLTSDLFRRFPTLKFVIPHGGGAVPYHWGRFRGLAQELKTPPLQEHLLHNVFFDTCVYHQPGIDLLTRVIPVDNILFASEMIGAVRGIDPETGHPFDDTRRYIDQAHTLSAEDRHKIYEGNARRVYPRLDARLKARGR

Assay: DNA shuffling libraries: 14CO2 capturing assay in 384-well format, fold activity of backbone (Megatable 2)
Settings: relative to backbone SEQ ID NO: 509 (DDEC0810)

Row | Molecule | Fold Activity
1 | B1 | 1.8 fold
2 | B2 | 0.9 fold
3 | B3 | 1.0 fold
4 | B4 | 1.3 fold
5 | B5 | 1.1 fold
6 | B6 | 1.0 fold
7 | B7 | 1.3 fold
8 | B8 | 0.8 fold
9 | B9 | 1.1 fold
10 | B10 | 1.4 fold
11 | B11 | 1.2 fold
12 | B12 | 0.9 fold
13 | B13 | 1.2 fold
14 | B14 | 1.2 fold

Assay: Saturation mutagenesis of SEQ ID NO:109: dicamba decarboxylation activity of point mutants (CO2 released), fold of backbone (Tables 7, 8, Megatable 1)
Settings: decarboxylation activity (CO2 released) of point mutant vs unmutated backbone protein; backbone SEQ ID NO: 109

Row | Molecule | Fold Activity
15 | B15 | 2.3 fold
16 | B16 | 1.8 fold
17 | B17 | 1.1 fold
18 | B18 | 2.9 fold
19 | B19 | 1.7 fold

— patent US20160040149A1, “Compositions Having Dicamba Decarboxylase Activity and Methods of Use” (priority 2013, published 2016)
